# Assay: soluble on expression in E. coli; label from the status in PepcDB or PDB records
row,Sequence,soluble on expression in E. coli
1,MLINARISVRSYPKYQRFSFFYALLFKRIDLILAQSKEDKKRLLNLGAKKVVDFLNIKRFSKPVITSFYPKNPSALNIVLASTHEGEEELGLKAFLELKKTFKNARLIVVPRHPERFKSVQDLLQNTLKTTPFSWECFSSKGFVECDILLVDSLGELNNFYQIADIVILGGSFVKMGGHNPLEPAFFNARLITGEYIFNQVALFELVKPYKIVPKEDLLDALLDYKNLGMARFLENGHDLNELLAFIKHLEHHHHHH,soluble
2,MGSDKIHHHHHHMISASTLNSELINKIAQDFAQATSLAVVVVNIHGDEISELFNFTPFCQLMRQHPEHSGRCRMSDRCGGLEASKKDQLCIYRCHAGLTDFSIPLVIAGHLVGFVLCGQVRLSNDVELVDILNVDDRWQDDPALVQAFRDVPEMDYSRVIASADLLKLIVENCLKKQLNFVVIKDNPSQNDPAQASRAPSPHDGKMKKALRYIDAHLSDELRLEDVAAHVYLSPYYFSKLFKKYQGIGFNAWVNQQRMASAKELLCHSDWSIASIARNLGFSQTSYFCKVFRQTYQVTPQAFRQQINAGSQTESF,not soluble
3,SVADANGSSSSSFNFLIYGKTGWIGGLLGKLCEAQGITYTYGSGRLQDRQSIVADIESVKPSHVFNAAGVTGRPNVDWCESHKVETIRTNVAGTLTLADICREKGLVLINYATGCIFEYDSGHPLGSGIGFKEEDTPNFTGSFYSKTKAMVEELLKNYENVCTLRVRMPISSDLTNPRNFITKIARYEKVVDIPNSMTILDELLPISIEMAKRNLTGIYNFTNPGVVSHNEILEMYRDYIDPSFTWKNFTLEEQAKVIVAPRSNNELDATKLKTEFPELMSIKESLIKFVFEPNKKTEVKA,soluble
4,MTPGVDGVNKTMLQARLAVELQILRDELLSGHYQPLPARRVYIPKSNGKLRPLGIPALRDRIVQRAMLMAMEPIWESDFHTLSYGFRPERSVHHAIRTVKLQLTDCGETRGRWVIEGDLSSYFDTVHHRLLMKAVRRRISDARFMTLLWKTIKAGHIDVGLFRAASEGVPQGGVISPLLSNIMLNEFDQYLHERYLSGKARKDRWYWNNSIQRGRSTAVRENWQWKPAVAYCRYADDFVLIVKGTKAQVEAIREECRGVLEGSLKLRLNMDKTKIPHVNDGFIFLGHRLIRKRSRYGEMRVVSTIPQEKARNFAASLTALLWKVRISGEILLGLEHHHHHH,soluble
5,VIRIGTRGSLLATTQAATVRDALIAGGHSAELVTISTEGDRSMAPIASLGVGVFTTALREAMEAGLVDAAVHSYKDLPTAADPRFTVAAIPPRNDPRDAVVARDGLTLGELPVGSLVGTSSPRRAAQLRALGLGLEIRPLRGNLDTRLNKVSSGDLDAIVVARAGLARLGRLDDVTETLEPVQMLPAPAQGALAVECRAGDSRLVAVLAELDDADTRAAVTAERALLADLEAGCSAPVGAIAEVVESIDEDGRVFEELSLRGCVAALDGSDVIRASGIGSCGRARELGLSVAAELFELGARELMWGVRH,not soluble
6,SKLLDKDGKVFAEVGTERREYIEYKDIPETLKNAILTTEDARFYEHDGIDPIRLGGAVVANVTDGFGAEGASTLSQQIIKMSYLDYTNKTLARKAQEAWLALQLEEKYSKNDILEIYVNKVYMSDRVHGMQTAAEHYFGKNVKDLTLAETALLAGMPQSPNNYNPYDHP,not soluble
7,MGSDKIHHHHHHVKSDYYKEPIVINTDALIPPSPSDDMWKNRKRAYYMYDAPDVPTCSIVVTGYNRLHKTKYCVECILKYTRDVDYELILVDNGSDDGTLDFFQSVPYENKTIIRMTQNKGATLPFKYYINILKGKYIVNISNDIYVTQNWLSNLLKCYQSDPKIGFVEPVSSNVSNLQEVDLGFSDFDDMQKKAAAFNQSDPAKWEERLRLISVINVFLRDVLDNVGINDAAYFYDFIEDDLCARIRRMGYKLVLCRDTWICHDHDFRNLEDKDPVAFQASLEHGRAVYRKKYYGIDPWDDINNFELTLLAQLDTAKIPRAVKALTVDVRCGAPALEIRNRLKRRGITDVASYAFTTAAKYYLDLQTVCSEVQCDRIDFIQQHYANGTFDLVVLGEPVNTYPLPVRLLQNLYDFLKPGGLLLFKVRNTDDYRAFLRSIGMEVASDPDLPASTPLNEVLACLKLFGAVDCTVAGELESISVADQEFLMNKLKAANPNADQATLNRLCIKDYCIKVIRK,not soluble
8,MSIAVTTTDPTNTGVSTTSSSSLTGSNAADLQSSFLTLLVAQLKNQDPTNPMENNELTSQLAQISTVSGIEKLNTTLGSISGQIDNSQSLQASNLIGHGVMIPGTTVLAGTGSEEGAVTTTTPFGVELQQAADKVTATITDKNGAVVRTIDIGELTAGVHSFTWDGTLTDGSTATNGSYNVAISASNGGTQLVAQPLQFALVQGVIRGNNGNTLDLGTYGTTILDEVRQII,soluble
9,KNASVITVGNEILKGRTVNTNAAFIGNFLTYHGYQVRRGFVVMDDLDEIGWAFRVALEVSDLVVSSGGLGPTFDDMTVEGFAKCIGQDLRIDEDALAMIKKKYGQADLTPQRLKMAKIPPSCRPIENPVGTAPGLICAVGGKKVIILPGVPKEMEALLKAMEKDIIIPD,soluble
10,MSSEACTDPYLRCAFNGAALTALGISHSALLAHSPQGCEYLVNNAFASQECDYMETMTLCTKLCVDEIVHGGEDILARTIREVKDLPISALFVLSACGPEIVGDDIVGVCEALQPEVKFRLVPIESAGFRGSQYDGIDIAMDTILKKLVKDDVEKIPGSVCLEHHHHHH,not soluble
11,MDQVVVFQKMFEQVRKEQNFSWFYSELKHHRIAHYIYYLATDNIRIITHDDTVLLLRGTRNLLKVSTTKNPAKIKEAALLHICGKSTFREYCSTLAGAGVFRWVTDVNHNKRSYYAIDNTLLYIEDVENNKPLILEHHHHHH,soluble
12,MKPATYNTEAFDEWIRSRFVELNSQLEQLYYQQTDRANVQEVGTELKHTLESEGRELVKALLDEGNTDEGFDSAFDLLGNVGLYMAACRRHEITEPTRETTSPLLEASALAMHIGASIGVTPRFATAHLTTHNRAHNGIYKRFTDLPDEKLFVDYNTKGILAYKRASDALLKIQPLGISHPISHDLLRVTKQALQDVIESNQQLFNRLDTDRFFYCVRPYYKPYRVGSVVYRGANAGDFAGINVIDLTLGLCFANEASYSQMLVDKFLYMMPEDQQILRECMRRPNLMDDFLQAKGCIHQDWYQENLKLFIEVCELHGQTAIQHHNELVTKYIAEPSVSMEQQHLAKVTASGPPLHVLLASLERLRDRRAAVLRDDIRTRYYDLKKLKDSLRAAALEHHHHHH,soluble
13,MTLDHQIINPTLKWSQPAVPSGGPLVQHAHTTLDSDAGLTENPLTKLLAIGKEDDNAQWHLSGSILDVYSGEQGISPINMGLTSASCPSSLPMKREITETDTRALAKERQKKDNHNLIERRRRYNINYRIKELGTLIPKSNDPDMRWNKGTILKASVEYIKWLQKEQQRARELEHRQKKLEQANRRLLLRIQVFIRM,not soluble
14,MTKPSVGINGFGRIGRLVLRAAVEKDSVNVVAVNDPFISIDYMVYLFQYDSTHGRFKGTVAHEGDYLLVAKEGKSQHKIKVYNSRDPAEIQWGASGADYVVESTGVFTTIEKANAHLKGGAKKVIISAPSADAPMFVVGVNHEKYDHANDHIISNASCTTNCLAPLAKVINDNFGIIEGLMTTVHAVTATQKTVDGPSGKLWRDGRGAGQNIIPASTGAAKAVGKVIPELNGKLTGMAFRVPTPDVSVVDLTARLEKPASLDDIKKVIKAAADGPMKGILAYTEDQVVSTDFVSDTNSSIFDAGASISLNPHFVKLVSWYDNEFGYSNRVVDLISYIATKA,soluble
15,EPGSSEGLGLLNVHTVLTGSKQLTKTEAVLNLNNQKAKVKGYEIHVGRSQVLDEQPLELDNGECDGAISECGQIMGTYLHGFFDEAEALNLITEWVNGTQVKQQDFEVLKEQGINRIADAIEQHMNLDFLFK,not soluble
16,MTSSDSNVDPGLGIAVDLGTTTLAASLVDLSSGERLASAGSLNPQREFGADVVSRLDAACRSGEALQRMAALVREELYRLAARLLDSAGEARDRLRMVAVAGNPAMEHLLLGLPVVRLAYPPYRPLFSTSTHISAADLGWDLSGRVALFPLPGGFVGGDTVAFLFGVPDVCAPCPGPRLFLDMGTNGEMVLQCGDVLLGTSAAAGPAFEGGGLACGMAALPGAVNGIIRDGDRVRVTTIGGGQPLGICGSAVLDTVALLLEEGLLDSTGRLLPPEEIASPVGARMGTVGGEPAFILHRDAARTIYLSQGDIRQVQLAKGAIRAGMEVLCERARIRCEDIEEVVLTGSFGAVLSPRSLKFIGIFTEKMVQTTRFVREGALAGAERALTAPEGFEAVDRLARALRVIPLSGTPAFEKHFLKHIDFPSRLEHHHHHH,soluble
17,MREYRITAEEGHPRIDVFLAGRPEIGLSRSRIQALIDEGQVTLNGAMPKARQAVNPGDVIVVRVPDPEPMELVPEDIPLDIVYEDEDILVVNKQRGLVVHPAAGHWTGTLVHALLDKVDDLEGIGGELRPGIVHRLDKDTTGLLVVAKSERAMASLQEQIRDHMVQRVYWALVHGNSMPDTGRIEAPIGRHPRDRKRMAVNPKTGRDAVTYFRVLERYRGYALLECRLETGRTHQIRVHLSFIGHPVVGDPLYGPRKPHLGMPPQALHARQLSFRHPASGEWMEFTVDPPADMMAVVQRLREEA,soluble
18,MLNSVKKLLGDSQKRKLKKYEQLVQEINNLEEKLSDLSDEELRHKTITFKDMLRDGKTVDDIKVEAFAVVREAAKRVLGLRHYDVQLIGGLVLLEGNIAEMPTGEGKTLVSSLPTYVRALEGKGVHVITVNDYLAKRDKELIGQVHEFLGLKVGLNIPQIDPSEKKLAYEADITYGIGTEFGFDYLRDNMAASKNEQVQRPYHFAIIDEIDSVLIDEAKTPLIIAGKKSSSSDLHYLCAKVIKSFQDTLHYTYDAESKSASFTEDGITKIEDLFDIDNLYDLEHQTLYHYMIQALRAHVAFQCDVDYIVHDEKILLVDIFTGRVMDGRSLSDGLHQALEAKEGLEITEENQTQASITIQNFFRMYPALSGMTGTAKTEEKEFNRVYNMEVMPIPTNRPIIREDKKDVVYVTADAKYKAVREDVLKHNKQGRPILIGTMSILQSETVARYLDEANITYQLLNAKSAEQEADLIATAGQKGQITIATNMAGRGTDILLGEGVHELGGLHVIGTERHESRRVDNQLKGRAGRQGDPGSSQFFLSLEDEMLKRFAQEEVEKLTKSLKTDETGLILTSKVHDFVNRTQLICEGSHFSMREYNLKLDDVINDQRNVIYKLRNNLLQEDTNMIEIIIPMIDHAVEAISKQYLVEGMLPEEWDFASLTASLNEILSVENMPSLSANNVHSPEDLQSVLKETLSLYKERVNELDSNTDLQQSLRYVALHFLDQNWVNHLDAMTHLKEGIGLRQYQQEDPTRLYQKEALDIFLYTYGNFEKEMCRYVARHLGVPENVQ,not soluble
19,MATVKTVLVKGRCNSRGAYPLAVQVLHKRKKKVFYTGYSITPCEFDSFSGRVLFNGVYTMETVRRMNRTCRKICKILDKAIGILEREGNEYTTCDISRVYETLTGKVGFYSYFRERIRVLFDTGHEGTAKAYEATLHSMQKHLCKTDFPFAHLSSRLVIKYRDTLLEAGVGKNTIGFYLHNMKAVYRRGCLELNLVFPSPFCNIRIRSEKTVKQSLPMKQVKSLANLSLSVGTPECLARDVFMFSIYTRGMSFVDIAFLKKSDIFPGVIRYRRQKTGQLLEIGINRQIQNLLERYGDTSGDYLFPLVDESETPYSGYKKAYNRMRYALKKVS,not soluble
20,MGSDKIHHHHHHMQRVRQICVVGGSGFVGSALVHRLSTAGYDVKVLTRRRESSKHLILLPNVQVTECDVFNEASLSGQLHGQDAVINLAGILHESGNATFESIHVDLATRIADICCKQGVPRLLHMSALKASADAKSAYLRSKAAGEQAVLRRADELQVTVFRPSVIFGRGDHFLSMLANVVNMMPVVAVAKPNAKFQPIWVEDVAYVFLTALENVSTYGRSIDLGGPQVYTLKQLIELTALLLGKKRRIVSLNDKLSYYQAYALELMPFKLMTRDNLLSMEVDSVCDGPISEFFGHSLASLEAIAPEYIAGETPRSAYERFRSLAGRTFSRR,not soluble

# — the DeepSol protein solubility set
